Article PMC5586147
Where “and” joins values, the source holds several entries; their conditions need not be identical. Equal values may be shown once.

How the values were obtained:
[1] = target: pro-TGF-β1 prodomain expressed in absence of the growth factor (latency-associated peptide, LAP); assay: SPR
[2] = target: human pro-TGF-β1 (C4S, R249A furin-site mutant, N107Q, N147Q), purified (human); assay: negative-stain electron microscopy

soluble integrin αVβ6 headpiece (from UniProt P06756 31-625; P18564 22-491) (complex)
Kd [1]: 7.6 nM
stoichiometry N (αVβ6 headpieces per pro-TGF-β1 dimer) [2]: 2 and 1
